From paper PMC3469819 come the findings set out here.

Test [1] addresses full-length human CDK9 (residues 1–372) (human) (UniProt P50750).
For test [2] the target is unchanged. The source holds these as a separate data set.
Test [3] deals with truncated CDK9 construct CDK9_(330) (residues 1–330) (human) (UniProt P50750).
Chain of truncated CDK9 construct CDK9_(330) (residues 1–330) (human) (P50750 1-330): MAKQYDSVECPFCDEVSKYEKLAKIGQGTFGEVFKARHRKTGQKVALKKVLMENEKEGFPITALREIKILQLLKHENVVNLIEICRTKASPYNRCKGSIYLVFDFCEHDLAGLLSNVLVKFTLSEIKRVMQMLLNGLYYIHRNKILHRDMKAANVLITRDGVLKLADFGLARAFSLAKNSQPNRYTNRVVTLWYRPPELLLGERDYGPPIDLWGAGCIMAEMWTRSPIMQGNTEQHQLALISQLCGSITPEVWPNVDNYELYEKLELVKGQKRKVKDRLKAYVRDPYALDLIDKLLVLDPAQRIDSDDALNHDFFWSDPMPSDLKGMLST

Chain of full-length human CDK9 (residues 1–372) (human) (P50750 whole entry, the tested form may be a part): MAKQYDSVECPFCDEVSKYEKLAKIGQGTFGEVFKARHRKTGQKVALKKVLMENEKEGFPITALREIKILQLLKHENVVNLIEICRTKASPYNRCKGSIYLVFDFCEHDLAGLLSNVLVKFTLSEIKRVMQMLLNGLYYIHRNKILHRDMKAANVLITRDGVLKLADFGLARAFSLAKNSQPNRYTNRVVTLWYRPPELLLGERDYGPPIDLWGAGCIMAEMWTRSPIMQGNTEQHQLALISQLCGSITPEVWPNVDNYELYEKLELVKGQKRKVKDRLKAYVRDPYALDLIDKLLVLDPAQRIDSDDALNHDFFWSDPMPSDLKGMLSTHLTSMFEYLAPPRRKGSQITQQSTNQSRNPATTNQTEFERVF

In test [1], “GST-tagged version of the human Pol II CTD (from UniProt P24928 1587-1970) (domain or fragment)” came in with a K (M, CTD): overall Michaelis constant for GST-CTD of CDK9FL/cyclin T, from initial rates with both GST-CTD and ATP varied of 115 µM. The same substance returned a K (M,app) for GST-CTD of the kinase activity of CDK9FL/cyclin T (32P incorporation into GST-CTD, fixed ATP) in test [2] of 24.3 µM. For the same substance, in test [3], the K (M,app) for GST-CTD of the kinase activity of CDK9 (330)/cyclin T (32P incorporation into GST-CTD, fixed ATP) was 21.3 µM.
